According to patent US20250163127A1 (published 2025):

T1: CD80 (human)
T1 chain: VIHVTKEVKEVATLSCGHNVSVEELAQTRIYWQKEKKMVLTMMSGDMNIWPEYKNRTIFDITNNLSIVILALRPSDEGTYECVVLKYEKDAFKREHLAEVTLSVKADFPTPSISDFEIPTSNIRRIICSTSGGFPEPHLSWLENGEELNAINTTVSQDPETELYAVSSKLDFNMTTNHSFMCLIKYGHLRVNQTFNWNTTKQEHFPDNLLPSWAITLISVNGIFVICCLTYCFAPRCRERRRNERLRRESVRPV

T2: human CD86 (human)
T2 chain: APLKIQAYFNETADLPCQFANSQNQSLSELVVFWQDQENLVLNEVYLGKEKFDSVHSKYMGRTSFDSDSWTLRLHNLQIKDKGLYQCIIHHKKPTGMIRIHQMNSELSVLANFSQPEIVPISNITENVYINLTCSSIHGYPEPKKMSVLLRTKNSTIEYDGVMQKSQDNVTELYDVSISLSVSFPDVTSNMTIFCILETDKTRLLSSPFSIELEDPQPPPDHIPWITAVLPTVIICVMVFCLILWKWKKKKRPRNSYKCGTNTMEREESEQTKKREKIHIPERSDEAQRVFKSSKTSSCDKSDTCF


Columns and labels:
CD2 = CD2 (Homo sapiens (Human), UniProt P06729); test: flow cytometry, CHO-CD2 cells
human PD-1 = human PD-1 (human, UniProt Q15116); test: flow cytometry, Jurkat/IL-2/PD-1 cells
CD80 = biological target: T1, CD80; test: flow cytometry, CHO-CD80 cells
human CD86 = biological target: T2, human CD86; test: cell-based or functional assay
PD-1 = PD-1 (human, UniProt Q15116); test: cell-based or functional assay

Row | EC50 (CD2) [nM] | EC50 (human PD-1) [nM] | EC50 (CD80) [nM] | 100 nM IFN-gamma (pg/mL), SEB assay (human CD86) [pg/mL] | 100 nM IFN-gamma (pg/mL), SEB assay (PD-1) [pg/mL] | Binder
1 | 2 | 4.6 |  |  |  | CD58 3650-PD-L1 303-Fc (Fc fusion) SQQIYGVVYGNVTFHVPSNVPLKEVLWKKQKDKVAELENSEFRAFSSFKNRVYLDTVSGSLTIYNLTSSDEDEYEMESPNITDTMKFFLYVLESGGGGSGGGGSGGGGSFTVTVPKDLYVVEYGSNMTIECKFPVEKQLDLAALIVYWEMEGKDIIQFVHGEEDQKAQHSSYRQRARLLKDQLSLGNAALQITDVKLQDAGVYRCMISYGGGADYKRITVKVNAGSGGGGSEPKSSDKTHTCPPCPAPEAEGAPSVFLFPPKPKDTLMISRTPEVTCVVVDVSHEDPEVKFNWYVDGVEVHNAKTKPREEQYNSTYRVVSVLTVLHQDWLNGKEYKCKVSNKALPAPIEKTISKAKGQPREPQVYTLPPSRDELTKNQVSLTCLVKGFYPSDIAVEWESNGQPENNYKTTPPVLDSDGSFFLYSKLTVDKSRWQQGNVFSCSVMHEALHNHYTQKSLSLSPG
2 |  | 0.5 | 3.4 |  |  | PD-L1 303-CTLA4 3060-Fc (Fc fusion) FTVTVPKDLYVVEYGSNMTIECKFPVEKQLDLAALIVYWEMEGKDIIQFVHGEEDQKAQHSSYRQRARLLKDQLSLGNAALQITDVKLQDAGVYRCMISYGGGADYKRITVKVNAGSGGSGGGGSGGGGSKAMHVAQPAVVFASSHGIASFVCEYASPWKATEVRVTVLRQADSQVTEVCAATYMTGNELTFLDDSICTGTSSGNQVNLTIQGLRAMDTGLYICKVEQMYPPPYLLGIGNGTQIYVIDPEPCPDSDGGGGSGSGGGGSEPKSSDKTHTCPPCPAPEAEGAPSVFLFPPKPKDTLMISRTPEVTCVVVDVSHEDPEVKFNWYVDGVEVHNAKTKPREEQYNSTYRVVSVLTVLHQDWLNGKEYKCKVSNKALPAPIEKTISKAKGQPREPQVYTLPPSRDELTKNQVSLTCLVKGFYPSDIAVEWESNGQPENNYKTTPPVLDSDGSFFLYSKLTVDKSRWQQGNVFSCSVMHEALHNHYTQKSLSLSPG [PD-L1 303-CTLA4 3060-Fc, listing 1 of 2 here]
3 |  |  |  | 4470 | 4470 | PD-L1 303-CTLA4 3060-Fc (Fc fusion) FTVTVPKDLYVVEYGSNMTIECKFPVEKQLDLAALIVYWEMEGKDIIQFVHGEEDQKAQHSSYRQRARLLKDQLSLGNAALQITDVKLQDAGVYRCMISYGGGADYKRITVKVNAGSGGSGGGGSGGGGSKAMHVAQPAVVFASSHGIASFVCEYASPWKATEVRVTVLRQADSQVTEVCAATYMTGNELTFLDDSICTGTSSGNQVNLTIQGLRAMDTGLYICKVEQMYPPPYLLGIGNGTQIYVIDPEPCPDSDGGGGSGSGGGGSEPKSSDKTHTCPPCPAPEAEGAPSVFLFPPKPKDTLMISRTPEVTCVVVDVSHEDPEVKFNWYVDGVEVHNAKTKPREEQYNSTYRVVSVLTVLHQDWLNGKEYKCKVSNKALPAPIEKTISKAKGQPREPQVYTLPPSRDELTKNQVSLTCLVKGFYPSDIAVEWESNGQPENNYKTTPPVLDSDGSFFLYSKLTVDKSRWQQGNVFSCSVMHEALHNHYTQKSLSLSPG [PD-L1 303-CTLA4 3060-Fc, listing 2 of 2 here]
4 |  |  |  | 6100 | 6100 | PD-L1 303-CTLA-4 3037-Fc (SEQ ID NO 3668) (Fc fusion) FTVTVPKDLYVVEYGSNMTIECKFPVEKQLDLAALIVYWEMEGKDIIQFVHGEEDQKAQHSSYRQRARLLKDQLSLGNAALQITDVKLQDAGVYRCMISYGGGADYKRITVKVNAGSGGSGGGGSGGGGSKAMHVAQPAVVLASSRGIASFVCEYASPWKATEVRVTVLRQADSQVTEVCAATYMMGSELTFPDDSICTGTSSGNQVNLTIRGLRAMDTGLYICKVEQMYPPPYLLGIGNGTQIYVIDPEPCPDSDGGGGSGSGGGGSEPKSSDKTHTCPPCPAPEAEGAPSVFLFPPKPKDTLMISRTPEVTCVVVDVSHEDPEVKFNWYVDGVEVHNAKTKPREEQYNSTYRVVSVLTVLHQDWLNGKEYKCKVSNKALPAPIEKTISKAKGQPREPQVYTLPPSRDELTKNQVSLTCLVKGFYPSDIAVEWESNGQPENNYKTTPPVLDSDGSFFLYSKLTVDKSRWQQGNVFSCSVMHEALHNHYTQKSLSLSPG
5 |  |  |  | 807 |  | CTLA-4 3037-Fc (Fc fusion) KAMHVAQPAVVLASSRGIASFVCEYASPWKATEVRVTVLRQADSQVTEVCAATYMMGSELTFPDDSICTGTSSGNQVNLTIRGLRAMDTGLYICKVEQMYPPPYLLGIGNGTQIYVIDPEPCPDSDGSGGGGSEPKSSDKTHTCPPCPAPEAEGAPSVFLFPPKPKDTLMISRTPEVTCVVVDVSHEDPEVKFNWYVDGVEVHNAKTKPREEQYNSTYRVVSVLTVLHQDWLNGKEYKCKVSNKALPAPIEKTISKAKGQPREPQVYTLPPSRDELTKNQVSLTCLVKGFYPSDIAVEWESNGQPENNYKTTPPVLDSDGSFFLYSKLTVDKSRWQQGNVFSCSVMHEALHNHYTQKSLSLSPG
6 |  | 0.6 | 2.3 |  |  | CTLA-4 3060-PD-L1 303-Fc (Fc fusion) KAMHVAQPAVVFASSHGIASFVCEYASPWKATEVRVTVLRQADSQVTEVCAATYMTGNELTFLDDSICTGTSSGNQVNLTIQGLRAMDTGLYICKVEQMYPPPYLLGIGNGTQIYVIDPEPCPDSDGSGGSGGGGSGGGGSFTVTVPKDLYVVEYGSNMTIECKFPVEKQLDLAALIVYWEMEGKDIIQFVHGEEDQKAQHSSYRQRARLLKDQLSLGNAALQITDVKLQDAGVYRCMISYGGGADYKRITVKVNAGGGGSGSGGGGSEPKSSDKTHTCPPCPAPEAEGAPSVFLFPPKPKDTLMISRTPEVTCVVVDVSHEDPEVKFNWYVDGVEVHNAKTKPREEQYNSTYRVVSVLTVLHQDWLNGKEYKCKVSNKALPAPIEKTISKAKGQPREPQVYTLPPSRDELTKNQVSLTCLVKGFYPSDIAVEWESNGQPENNYKTTPPVLDSDGSFFLYSKLTVDKSRWQQGNVFSCSVMHEALHNHYTQKSLSLSPG [CTLA-4 3060-PD-L1 303-Fc, listing 1 of 2 here]
7 |  |  |  | 2050 | 2050 | CTLA-4 3037-PD-L1 303-Fc (SEQ ID NO 3666) (Fc fusion) KAMHVAQPAVVLASSRGIASFVCEYASPWKATEVRVTVLRQADSQVTEVCAATYMMGSELTFPDDSICTGTSSGNQVNLTIRGLRAMDTGLYICKVEQMYPPPYLLGIGNGTQIYVIDPEPCPDSDGSGGSGGGGSGGGGSFTVTVPKDLYVVEYGSNMTIECKFPVEKQLDLAALIVYWEMEGKDIIQFVHGEEDQKAQHSSYRQRARLLKDQLSLGNAALQITDVKLQDAGVYRCMISYGGGADYKRITVKVNAGGGGSGSGGGGSEPKSSDKTHTCPPCPAPEAEGAPSVFLFPPKPKDTLMISRTPEVTCVVVDVSHEDPEVKFNWYVDGVEVHNAKTKPREEQYNSTYRVVSVLTVLHQDWLNGKEYKCKVSNKALPAPIEKTISKAKGQPREPQVYTLPPSRDELTKNQVSLTCLVKGFYPSDIAVEWESNGQPENNYKTTPPVLDSDGSFFLYSKLTVDKSRWQQGNVFSCSVMHEALHNHYTQKSLSLSPG
8 |  |  |  | 3790 | 3790 | CTLA-4 3060-PD-L1 303-Fc (Fc fusion) KAMHVAQPAVVFASSHGIASFVCEYASPWKATEVRVTVLRQADSQVTEVCAATYMTGNELTFLDDSICTGTSSGNQVNLTIQGLRAMDTGLYICKVEQMYPPPYLLGIGNGTQIYVIDPEPCPDSDGSGGSGGGGSGGGGSFTVTVPKDLYVVEYGSNMTIECKFPVEKQLDLAALIVYWEMEGKDIIQFVHGEEDQKAQHSSYRQRARLLKDQLSLGNAALQITDVKLQDAGVYRCMISYGGGADYKRITVKVNAGGGGSGSGGGGSEPKSSDKTHTCPPCPAPEAEGAPSVFLFPPKPKDTLMISRTPEVTCVVVDVSHEDPEVKFNWYVDGVEVHNAKTKPREEQYNSTYRVVSVLTVLHQDWLNGKEYKCKVSNKALPAPIEKTISKAKGQPREPQVYTLPPSRDELTKNQVSLTCLVKGFYPSDIAVEWESNGQPENNYKTTPPVLDSDGSFFLYSKLTVDKSRWQQGNVFSCSVMHEALHNHYTQKSLSLSPG [CTLA-4 3060-PD-L1 303-Fc, listing 2 of 2 here]
9 |  |  |  | 2070 | 2070 | CTLA4 3037-Fc-PD-L1 303 (SEQ ID NO 3672) (Fc fusion) KAMHVAQPAVVLASSRGIASFVCEYASPWKATEVRVTVLRQADSQVTEVCAATYMMGSELTFPDDSICTGTSSGNQVNLTIRGLRAMDTGLYICKVEQMYPPPYLLGIGNGTQIYVIDPEPCPDSDGSGGGGSEPKSSDKTHTCPPCPAPEAEGAPSVFLFPPKPKDTLMISRTPEVTCVVVDVSHEDPEVKFNWYVDGVEVHNAKTKPREEQYNSTYRVVSVLTVLHQDWLNGKEYKCKVSNKALPAPIEKTISKAKGQPREPQVYTLPPSRDELTKNQVSLTCLVKGFYPSDIAVEWESNGQPENNYKTTPPVLDSDGSFFLYSKLTVDKSRWQQGNVFSCSVMHEALHNHYTQKSLSLSPGGGGGSGGGGSGGGGSAFTVTVPKDLYVVEYGSNMTIECKFPVEKQLDLAALIVYWEMEGKDIIQFVHGEEDQKAQHSSYRQRARLLKDQLSLGNAALQITDVKLQDAGVYRCMISYGGGADYKRITVKVNA
10 |  |  |  | 1570 | 1570 | CTLA-4 3037-Fc-PD-L1 303 (SEQ ID NO 3670) (Fc fusion) KAMHVAQPAVVLASSRGIASFVCEYASPWKATEVRVTVLRQADSQVTEVCAATYMMGSELTFPDDSICTGTSSGNQVNLTIRGLRAMDTGLYICKVEQMYPPPYLLGIGNGTQIYVIDPEPCPDSDGSGGGGSEPKSSDKTHTCPPCPAPEAEGAPSVFLFPPKPKDTLMISRTPEVTCVVVDVSHEDPEVKFNWYVDGVEVHNAKTKPREEQYNSTYRVVSVLTVLHQDWLNGKEYKCKVSNKALPAPIEKTISKAKGQPREPQVYTLPPSRDELTKNQVSLTCLVKGFYPSDIAVEWESNGQPENNYKTTPPVLDSDGSFFLYSKLTVDKSRWQQGNVFSCSVMHEALHNHYTQKSLSLSPGGGGGSGGGGSGGGGSFTVTVPKDLYVVEYGSNMTIECKFPVEKQLDLAALIVYWEMEGKDIIQFVHGEEDQKAQHSSYRQRARLLKDQLSLGNAALQITDVKLQDAGVYRCMISYGGGADYKRITVKVNA
